# Test results taken from IntAct's records for PubMed 18337722.
# B1: Ataxin-1 (Homo sapiens), P54253 (parent)
# chain: MKSNQERSNECLPPKKREIPATSRSSEEKAPTLPSDNHRVEGTAWLPGNPGGRGHGGGRHGPAGTSVELGLQQGIGLHKALSTGLDYSPPSAPRSVPVATTLPAAYATPQPGTPVSPVQYAHLPHTFQFIGSSQYSGTYASFIPSQLIPPTANPVTSAVASAAGATTPSQRSQLEAYSTLLANMGSLSQTPGHKAEQQQQQQQQQQQQHQHQQQQQQQQQQQQQQHLSRAPGLITPGSPPPAQQNQYVHISSSPQNTGRTASPPAIPVHLHPHQTMIPHTLTLGPPSQVVMQYADSGSHFVPREATKKAESSRLQQAIQAKEVLNGEMEKSRRYGAPSSADLGLGKAGGKSVPHPYESRHVVVHPSPSDYSSRDPSGVRASVMVLPNSNTPAADLEVQQATHREASPSTLNDKSGLHLGKPGHRSYALSPHTVIQTTHSASEPLPVGLPATAFYAGTQPPVIGYLSGQQQAITYAGSLPQHLVIPGTQPLLIPVGSTDMEASGAAPAIVTSSPQFAAVPHTFVTTALPKSENFNPEALVTQAAYPAMVQAQIHLPVVQSVASPAAAPPTLPPYFMKGSIIQLANGELKKVEDLKTEDFIQSAEISNDLKIDSSTVERIEDSHSPGVAVIQFAVGEHRAQVSVEVLVEYPFFVFGQGWSSCCPERTSQLFDLPCSKLSVGDVCISLTLKNLKNGSVKKGQPVDPASVLLKHSKADGLAGSRHRYAEQENGINQGSAQMLSENGELKFPEKMGLPAAPFLTKIEPSKPAATRKRRWSAPESRKLEKSEDEPPLTLPKPSLIPQEVKICIEGRSNVGK
# partner: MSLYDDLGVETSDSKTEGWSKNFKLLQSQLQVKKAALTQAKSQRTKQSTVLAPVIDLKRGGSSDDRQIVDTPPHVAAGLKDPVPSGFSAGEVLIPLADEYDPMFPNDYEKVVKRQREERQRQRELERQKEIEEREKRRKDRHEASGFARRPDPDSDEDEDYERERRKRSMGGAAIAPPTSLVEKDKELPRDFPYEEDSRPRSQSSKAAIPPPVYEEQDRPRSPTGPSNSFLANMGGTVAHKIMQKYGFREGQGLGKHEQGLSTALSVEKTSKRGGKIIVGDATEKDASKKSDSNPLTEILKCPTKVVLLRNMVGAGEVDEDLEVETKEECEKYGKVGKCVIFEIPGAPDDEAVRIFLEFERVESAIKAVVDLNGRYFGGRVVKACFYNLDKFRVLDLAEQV
# Variants of: B1
# Settings: with spf45_human RBM17, Q96I25
row,Variant,effect of a mutation on the interaction
1,S775A,disrupting interaction strength
